Experimental data as given in patent US20180303952A1 (CYTOMX THERAPEUTICS, published 2018).
Several values for one entry are separate records, joined by “and”; a condition that tells them apart may be missing. Identical values can stand only once. Like-named read-outs stand apart in the source and are kept apart here.

What was measured:
[1] = target: T1, human CD147 protein (adsorbed to ELISA plates) (human, UniProt P35613-2 22-205, limits assumed); assay: ELISA, human CD147 protein adsorbed to plate, anti-human Fab-peroxidase detection; apparent KD
T1 construct: also called human CD147 polypeptide; Basigin
T1 sequence (looked up): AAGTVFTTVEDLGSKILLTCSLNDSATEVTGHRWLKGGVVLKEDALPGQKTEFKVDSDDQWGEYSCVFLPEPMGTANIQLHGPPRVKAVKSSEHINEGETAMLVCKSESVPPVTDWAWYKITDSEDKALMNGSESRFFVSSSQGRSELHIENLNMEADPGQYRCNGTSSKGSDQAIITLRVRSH
Procedure: (§1) For the exemplary assay depicted in FIGS. 7A-7C, standard ELISA protocol was used, in which human CD147 protein was absorbed to ELISA plates and subsequently incubated with the indicated concentration of antibody of the present disclosure. Bound humanized activatable antibody of the present disclosure was detected with anti-human Fab-peroxidase secondary antibody and Ultra TMB detection (Thermo Fisher Scientific).

[2] = target: T2, cynomolgus monkey CD147 on the cynomolgus primary kidney epithelial cell line (cynomolgus monkey); assay: FACS on cynomolgus primary kidney epithelial cell line, Alexa Fluor 647 goat anti-human IgG detection
T2 construct: whole, on cells; also called cynomolgus CD147
Procedure: In this study, the binding of the humanized anti-human CD147 antibody of the present disclosure to the indicated cell lines were performed using a standard FACS labelling method. Briefly, cells were labeled with the indicated antibodies of the present disclosure: anti-human CD147 antibody (humanized anti-human CD147 hu3A11 antibody; VH of SEQ ID NO: 1, VL of SEQ ID NO: 5) at the indicated concentrations and subsequently detected with an Alexa Fluor 647 labeled goat anti-human IgG secondary antibody.

[3] = target: T1, human CD147 protein (adsorbed to ELISA …); assay: ELISA, human CD147 protein adsorbed to plate, anti-human Fab-peroxidase detection; apparent KD; remark: listed apart in the source
Procedure: as §1, with “Using a” for “For the exemplary assay depicted in FIGS. 7A-7C,”, “protocol,” for “protocol was used, in which”

[4] = target: T3, recombinant human CD147-Fc chimeric protein (glycosylated) (human, UniProt P35613-2 25-205, glycosylated as supplied (migrates at about 62 kDa)); assay: ELISA, CD147-Fc adsorbed at 1 ug/mL, anti-human Fab-peroxidase detection; apparent KD
T3 construct: Bought protein; also called CD147-Fc (glycosylated); R&D Systems cat. no; 927-EMN-050; Fc part of the bought chimera not given
T3 sequence (looked up): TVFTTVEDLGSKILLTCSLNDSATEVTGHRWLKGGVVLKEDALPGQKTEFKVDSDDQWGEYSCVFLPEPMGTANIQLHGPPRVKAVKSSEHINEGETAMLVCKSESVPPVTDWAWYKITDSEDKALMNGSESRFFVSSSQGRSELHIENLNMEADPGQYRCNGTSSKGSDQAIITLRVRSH
Procedure: (§2) After buffer exchange with PBS, the deglycosylated or glycosylated proteins were adsorbed onto ELISA plates at 1 μg/mL. […] Bound humanized antibody of the present disclosure was detected with anti-human Fab-peroxidase secondary antibody and the mouse 3A11 monoclonal antibody was detected with anti-mouse Fc-peroxidase secondary antibody, and Ultra TMB detection (Thermo Fisher Scientific).

[5] = target: T1, human CD147 protein (adsorbed to ELISA …); assay: ELISA, human CD147 protein adsorbed to plate, anti-human Fab-peroxidase detection; apparent KD; remark: listed apart in the source
Procedure: The antibodies of the present disclosure that were assayed in this exemplary study were hu 3A11 Lc1/hu 3A11 Hc1 (VL of SEQ ID NO: 5 and VH of SEQ ID NO: 1), hu 3A11 Lc2/hu 3A11 Hc2 (VL of SEQ ID NO: 6 and VH of SEQ ID NO: 2), hu 3A11 Lc4/hu 3A11 Hc2 (VL of SEQ ID NO: 8 and VH of SEQ ID NO: 2). Using a standard ELISA protocol, human CD147 protein was absorbed to ELISA plates and subsequently incubated with the indicated concentration of antibody of the present disclosure. Bound humanized antibody of the present disclosure was detected with anti-human Fab-peroxidase secondary antibody, and Ultra TMB detection (Thermo Fisher Scientific).

[6] = target: T4, recombinant human CD147-Fc chimeric protein deglycosylated with Enzymatic Protein Deglycosylation Kit … (human, UniProt P35613-2 25-205, N- and simple O-linked carbohydrates removed enzymatically (Sigma-Aldrich EDEGLY kit, about 1.5 days at 37 C)); assay: ELISA, deglycosylated CD147-Fc adsorbed at 1 ug/mL, anti-human Fab-peroxidase detection; apparent KD
T4 construct: Same bought protein as m9 after deglycosylation (migrates at 52 and 48 kDa); also called CD147-Fc (deglyc-Sigma); Fc part of the bought chimera not given
T4 sequence (looked up): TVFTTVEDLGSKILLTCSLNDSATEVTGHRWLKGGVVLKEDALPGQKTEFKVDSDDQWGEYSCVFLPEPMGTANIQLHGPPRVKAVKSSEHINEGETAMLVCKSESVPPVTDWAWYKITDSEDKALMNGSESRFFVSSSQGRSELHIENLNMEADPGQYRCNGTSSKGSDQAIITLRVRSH
Procedure: (§3) In this example, recombinant human CD147-Fc chimeric protein (R&D Systems, cat. no. 927-EMN-050) was deglycosylated of N- and simple O-linked carbohydrates using the Protein Deglycosylation Mix II (˜16 hrs incubation at 37° C.; New England Biolabs, cat. no. P6044S) or the Enzymatic Protein Deglycosylation Kit (˜1.5 days+incubation at 37° C.; Sigma-Aldrich, cat. no. EDEGLY) in accordance with their respective protocols. […] Bovine fetuin, which includes both N- and O-linked carbohydrates, was used a control for the extent of deglycosylation.
as §2

[7] = target: T5, recombinant human CD147-Fc chimeric protein deglycosylated with Protein Deglycosylation Mix II (New England … (human, UniProt P35613-2 25-205, N- and simple O-linked carbohydrates removed enzymatically (NEB Protein Deglycosylation Mix II, about 16 hrs at 37 C))); assay: as above
T5 construct: Same bought protein as m9 after deglycosylation (migrates at 52 and 48 kDa); also called CD147-Fc (deglyc-NEB); Fc part of the bought chimera not given
T5 sequence (looked up): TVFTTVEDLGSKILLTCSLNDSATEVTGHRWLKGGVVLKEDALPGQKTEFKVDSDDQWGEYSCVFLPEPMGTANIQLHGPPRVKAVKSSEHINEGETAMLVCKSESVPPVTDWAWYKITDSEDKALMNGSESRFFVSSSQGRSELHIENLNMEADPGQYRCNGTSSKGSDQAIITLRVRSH
Procedure: as §3, §2

[8] = target: T1, human CD147 protein (adsorbed to ELISA …); assay: ELISA, human CD147 protein adsorbed to plate, anti-human Fab-peroxidase detection; apparent KD; remark: listed apart in the source
Procedure: The antibody of the present disclosure that was assayed in this exemplary study was hu 3A11 Lc1/Hc1 (VL of SEQ ID NO: 5 and VH of SEQ ID NO: 1). Mouse anti-human CD147 monoclonal antibody 3A11 (VL of SEQ ID NO: 8 and VH of SEQ ID NO: 4) was assayed as a reference. Using a standard ELISA protocol, human CD147 protein was absorbed to ELISA plates and subsequently incubated with the indicated concentration of antibody of the present disclosure. Bound humanized antibody of the present disclosure was detected with anti-human Fab-peroxidase secondary antibody and the mouse 3A11 monoclonal antibody was detected with anti-mouse Fc-peroxidase secondary antibody, and Ultra TMB detection (Thermo Fisher Scientific).

B1: humanized anti-human CD147 monoclonal antibody hu 3A11 Lc1/Hc1 (antibody, V domains shown)
VH: EVQLVESGGGLVQPGGSLRLSCAASGFTFSNYWMDWVRQAPGKGLEWVGEIRLKSYNYATHYAASVKGRFTISRDDSKNSVYLQMNSLKTEDTAVYYCTAAGTDYWGQGTLVTVSS
VL: DIQMTQSPSSLSASVGDRVTITCRASQSVRTDVGWYQQKPGKAPKLLIYYSSNRYTGVPSRFSGSGSGTDFTLTISSLQPEDFATYYCQQDYSSPYTFGQGTKLEIK
notes: Detected with anti-human Fab or anti-human IgG secondary antibodies; also called hu 3A11 (hu Lc1/hu Hc1); hu 3A11 (hu Hc1/Lc1)
In the case of B1, the Kd [1] is reported as 0.45 nM and 0.59 nM, the Kd [2] is reported as 1.3 nM and the Kd [3] is reported as 0.14 nM. For the same binder, the Kd [4] was 0.191 nM, the Kd [5] was 0.852 nM and the Kd [6] was 0.175 nM. The Kd [7] was 0.185 nM and the Kd [8] was 0.71 nM.
